Legend:
[1] = target: SPS-1 (Sediminispirochaeta smaragdinae, UniProt E1R245); details: read-out: SPS-1 / Km; 50 mM HEPES, pH 7.5, 150 mM NaCl, 10 μM ZnCl2, 37 °C
[2] = test system: C[C@@H](O)[C@H]1C(=O)N2C(C(=O)O)=C(S[C@@H]3CN[C@H](C(=O)N(C)C)C3)[C@H](C)[C@H]12; test: purified protein; details: 50 mM HEPES, pH 7.5, 150 mM NaCl, 10 μM ZnCl2, 37 °C
[3] = test system: CC(=O)OCC1=C(C(=O)O)N2C(=O)[C@@H](NC(=O)Cc3cccs3)[C@H]2SC1; test: purified protein; details: 50 mM HEPES, pH 7.5, 150 mM NaCl, 10 μM ZnCl2, 37 °C
[4] = test system: C[C@@H](O)[C@H]1C(=O)N2C(C(=O)O)=C(SCCN=CN)C[C@H]12; test: purified protein; details: 50 mM HEPES, pH 7.5, 150 mM NaCl, 10 μM ZnCl2, 37 °C

SPS-1, sequence (E1R245 32-276 limits assumed): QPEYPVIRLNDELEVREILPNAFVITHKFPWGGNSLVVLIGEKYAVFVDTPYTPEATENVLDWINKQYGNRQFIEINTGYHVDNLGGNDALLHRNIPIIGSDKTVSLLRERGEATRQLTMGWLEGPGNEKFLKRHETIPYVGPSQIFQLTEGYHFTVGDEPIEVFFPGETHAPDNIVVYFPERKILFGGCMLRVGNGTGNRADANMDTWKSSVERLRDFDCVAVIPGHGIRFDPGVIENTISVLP

| Substance | Km [1] | Km [2] | kcat [2] | kcat/Km [2] | Km [3] | kcat [3] | kcat/Km [3] | Km [4] | kcat [4] | kcat/Km [4] |
| --- | --- | --- | --- | --- | --- | --- | --- | --- | --- | --- |
| chromacef | 120 ± 9 µM |  |  |  |  |  |  |  |  |  |
| SPS-1 (Sediminispirochaeta smaragdinae DSM 11293) |  | 170 ± 30 µM | 520 ± 50 s⁻¹ | 3e+06 M⁻¹ s⁻¹ | 110 ± 20 µM | 3.1 ± 0.1 s⁻¹ | 27000 M⁻¹ s⁻¹ | 290 ± 50 µM | 470 ± 60 s⁻¹ | 1.63e+06 M⁻¹ s⁻¹ |
